From paper PMC6680903 (Molecules, 2019)

Columns and labels:
Conditions in all cases: both partners purified
[1] = target: T1, β2-Microglobulin (Homo sapiens, UniProt P61769); assay: SPR; Biacore T200; β2M immobilised on a CM5 chip to 150 RU; VHH samples after the modification procedure (NHS-Fluo:VHH 0, 1, 5 or 20; 2 h at 4 °C, ultrafiltration) in 2-fold serial dilution, 30 μL/min, HBS-EP+, 25 °C; 1:1 model with drift and RI2
T1 construct: human β2-microglobulin; Amine-coupled to a CM5 chip (150 RU); also called antigen β2M; source: expressed and purified as previously described [27]

[2] = target: T1, β2-Microglobulin; assay: SPR; Biacore T200; β2M immobilised on a CM5 chip to 150 RU; VHH samples 'Origin' (no treatment) in 2-fold serial dilution, 30 μL/min, HBS-EP+, 25 °C; 1:1 model with drift and RI2
[3] = target: T1, β2-Microglobulin; assay: SPR; Biacore T200; β2M immobilised on a CM5 chip to 150 RU; VHH samples after the modification procedure (NHS-Fluo:VHH 0, 1, 5 or 20; 2 h at 4 °C, ultrafiltration) in 2-fold serial dilution, 30 μL/min, HBS-EP+, 25 °C; 1:1 model with drift and RI2; remark: listed apart in the source
[4] = target: T2, β2-Microglobulin (β2M) (Homo sapiens, UniProt P61769); assay: SPR; Biacore T200; β2M immobilized on a CM5 chip to 150 RU; 2-fold serial diluted VHH at 30 μL/min in HBS-EP+; 25 °C; 1:1 binding model; VHH sample 'origin' without modification or other treatment
T2 construct: β2-microglobulin, human (the title says anti-human β2-microglobulin VHHs); Probably the mature protein without the signal peptide (surmised); also called antigen β2M; human β2-microglobulin; source: expressed and purified as previously described [27]

[5] = target: T2, β2-Microglobulin (β2M); assay: SPR; Biacore T200; β2M immobilized on a CM5 chip to 150 RU; 2-fold serial diluted VHH at 30 μL/min in HBS-EP+; 25 °C; 1:1 binding model; VHH samples after incubation with NHS-Fluo at molar ratio 0 (negative control), 1, 5 or 20 and ultrafiltration
[6] = target: T3, BSA (Bos taurus, UniProt P02769); assay: laser scanning confocal fluorescence imaging of protein-coated beads; β2M or BSA coupled to CNBr-activated Sepharose 4 Fast Flow beads; incubated with labeled NB-1 (10 μg/mL in PBS) 5 min at room temperature; washed five times with PBS; FV1000 microscope
T3 construct: BSA (bovine serum albumin); also called negative control - BSA
T3 sequence (P02769 25-607): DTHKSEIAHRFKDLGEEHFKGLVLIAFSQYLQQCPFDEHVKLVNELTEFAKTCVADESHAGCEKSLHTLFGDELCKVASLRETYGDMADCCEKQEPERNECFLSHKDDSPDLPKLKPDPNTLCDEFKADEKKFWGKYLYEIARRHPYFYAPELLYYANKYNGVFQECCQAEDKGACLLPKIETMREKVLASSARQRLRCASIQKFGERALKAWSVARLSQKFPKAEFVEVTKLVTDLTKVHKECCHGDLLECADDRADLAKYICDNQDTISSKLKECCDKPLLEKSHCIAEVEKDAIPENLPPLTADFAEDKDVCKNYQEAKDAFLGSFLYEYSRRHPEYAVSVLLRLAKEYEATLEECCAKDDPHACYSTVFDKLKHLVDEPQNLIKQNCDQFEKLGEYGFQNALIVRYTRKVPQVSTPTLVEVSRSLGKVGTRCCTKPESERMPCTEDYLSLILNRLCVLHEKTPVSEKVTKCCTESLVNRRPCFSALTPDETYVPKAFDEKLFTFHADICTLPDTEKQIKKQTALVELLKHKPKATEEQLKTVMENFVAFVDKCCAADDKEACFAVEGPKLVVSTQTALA

T1 sequence (P61769 21-119): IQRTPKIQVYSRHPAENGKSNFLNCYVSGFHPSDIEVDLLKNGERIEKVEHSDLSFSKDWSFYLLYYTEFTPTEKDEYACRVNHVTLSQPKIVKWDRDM
T2 sequence (P61769 21-119): as above

B1: NB-3 modified with 5 times of NHS-Fluo (VHH)
VHH: QVQLVESGGGLVQPGGSLRLSCAASGFSLDYYAIGWFRQAPGKEREGVSCISSSDDSTYYAGSVKGRFKISRDNAKSTVYLQMNSLKPEDSAVYYCAALHSGNYYYTPSYICDAEMDYWGKGTLVTVSS
notes: as the VHH domain of Dm10; flexible (G4S)4 linker between the VHH domain and the His6 tag, written out from '(G4S)4'; A mixture of isomers with different numbers and places of fluorescein; also called NB-3-5; source: E. coli SHuffle T7, purified (HisTrap HP), modified with NHS-Fluo, ultrafiltration
B1 gave a Kd [1] of 6.62 µM, a koff [1] of 0.00369 s⁻¹ and a kon [1] of 558 M⁻¹ s⁻¹.

B2: NB-3 modified with 20 times of NHS-Fluo (VHH)
VHH: B1 VHH
notes: as the VHH domain of Dm10; flexible (G4S)4 linker between the VHH domain and the His6 tag, written out from '(G4S)4'; A mixture of isomers with different numbers and places of fluorescein; also called NB-3-20; source: E. coli SHuffle T7, purified (HisTrap HP), modified with NHS-Fluo, ultrafiltration
B2 was tested, and the koff [1] was 0.00402 s⁻¹ and the kon [1] was 286 M⁻¹ s⁻¹.

B3: NB-4 (VHH)
VHH: QVQLVESGGGLVEPGGSVRLSCAVSGNIVSISTVGWYRQAPGKQRELVASITGGGTTNYGDFVNGRFSIYRDNAPNRVYLHMSTLRPDDTAVYYCNARAGGSGSGSDPYDYWGVGTQVTVSS
notes: VHH domain of NB-4; flexible (G4S)4 linker between the VHH domain and the His6 tag, written out from '(G4S)4'; VHH-(G4S)4-His6; Template of the homology model: PDB 5IMK (GMQE 0.85). 'Origin' = no treatment; '0' = negative control; also called NB-4-Origin; NB-4-0; source: E. coli SHuffle T7, purified (HisTrap HP)
For B3, the Kd [2] was 0.289 µM, the koff [2] was 0.0028 s⁻¹ and the kon [2] was 9700 M⁻¹ s⁻¹. It also gave a Kd [3] of 0.536 µM, a koff [3] of 0.003 s⁻¹ and a kon [3] of 5600 M⁻¹ s⁻¹.

B4: NB-1 modified with 1 time of NHS-Fluo (VHH)
VHH: QVQLVESGGGLVQAGGSLRLSCAASGSTLDSYYIGWFRQAPGKEREGVSCISSSGNSIRYVDSVKDRFTISRDNGKNTAYLHINSLRPEDTAVYYCAASRRGRKPGLPCSLVRERYAYWGQGTQVTVSS
notes: as the VHH domain of Dm2; flexible (G4S)4 linker between the VHH domain and the His6 tag, written out from '(G4S)4'; A mixture of isomers with different numbers and places of fluorescein, unmodified VHH among them; also called NB-1-1; source: E. coli SHuffle T7, purified (HisTrap HP), modified with NHS-Fluo, ultrafiltration
In the case of B4, the Kd [1] is reported as 0.177 µM, the koff [1] is reported as 0.00761 s⁻¹ and the kon [1] is reported as 43000 M⁻¹ s⁻¹.

B5: NB-1 (anti-β2M VHH, unmodified), VHH-(G4S)4-His6 (VHH)
VHH: B4 VHH
notes: VHH domain of NB-1; flexible (G4S)4 linker between the VHH domain and the 6xHis-tag, written out from the printed formula; Homology model built on template PDB 4KDT (GMQE 0.99); also called NB-1-origin; NB-1-0; source: E. coli SHuffle T7, purified (HisTrap HP)
Work on B5 yielded a Kd [4] of 0.06 µM and a Kd [5] of 0.138 µM.

B6: NB-3 (anti-β2M VHH, unmodified), VHH-(G4S)4-His6 (VHH)
VHH: B1 VHH
notes: VHH domain of NB-3; flexible (G4S)4 linker between the VHH domain and the 6xHis-tag, written out from the printed formula; Homology model built on template PDB 5J56 (GMQE 0.93), a template only; also called NB-3-origin; NB-3-0; source: E. coli SHuffle T7, purified (HisTrap HP)
In the case of B6, the Kd [5] is reported as 1.26 µM and the “fold increase of KD against the sample without any treatment” value [5] is reported as about 2 fold.

B7: NB-4 (anti-β2M VHH, unmodified), VHH-(G4S)4-His6 (VHH)
VHH: B3 VHH
notes: VHH domain of NB-4; flexible (G4S)4 linker between the VHH domain and the 6xHis-tag, written out from the printed formula; Homology model built on template PDB 5IMK (GMQE 0.85), a template only; also called NB-4-origin; NB-4-0; source: E. coli SHuffle T7, purified (HisTrap HP)
With B7 the “fold increase of KD against the sample without any treatment” value [5] was about 2 fold.

B8: NB-1 modified by a 20 fold amount of NHS-Fluo (VHH)
VHH: B4 VHH
notes: VHH domain as in m2 (NB-1); flexible (G4S)4 linker between the VHH domain and the 6xHis-tag, written out from the printed formula; also called labeled NB-1; modified NB-1; source: E. coli SHuffle T7, purified (HisTrap HP), then modified with NHS-Fluo (2 h, 4 °C), ultrafiltration
In the case of B8, the Kd [5] is reported as 0.297 µM and the binding result [6] is reported as “no binding (tested: 10 μg/mL)”.

B9: NB-2 (anti-β2M VHH, unmodified), VHH-(G4S)4-His6 (VHH)
VHH: QVQLVESGGGLVQHGGSLRLSCAASGSAFSTYSMTWHRQAPGKGREWVAGVDRSNSDTNYADSVKGRFTIYRDNAQNTVYLRMNSLKPEDTAVYYCSAERLDGSVRREYWGQGTQVTVSS
notes: VHH domain of NB-2; flexible (G4S)4 linker between the VHH domain and the 6xHis-tag, written out from the printed formula; Homology model built on template PDB 5IML (GMQE 0.92), a template only; also called NB-2-origin; NB-2-0; source: E. coli SHuffle T7, purified (HisTrap HP)
With B9 the Kd [5] was 0.726 µM and the “fold increase of KD against the sample without any treatment” value [5] was about 2 fold.

B10: NB-2 modified by a 20 fold amount of NHS-Fluo (VHH)
VHH: B9 VHH
notes: VHH domain as in m4 (NB-2); flexible (G4S)4 linker between the VHH domain and the 6xHis-tag, written out from the printed formula; Heterogeneous product of random amino modification; also called modified NB-2; NB-2 20:1; source: E. coli SHuffle T7, purified (HisTrap HP), then modified with NHS-Fluo (2 h, 4 °C), ultrafiltration
With B10 the Kd [5] was 42.3 µM.

B11: NB-3 modified by a 20 fold amount of NHS-Fluo (VHH)
VHH: B1 VHH
notes: VHH domain as in m6 (NB-3); flexible (G4S)4 linker between the VHH domain and the 6xHis-tag, written out from the printed formula; Heterogeneous product of random amino modification; also called modified NB-3; NB-3 20:1; source: E. coli SHuffle T7, purified (HisTrap HP), then modified with NHS-Fluo (2 h, 4 °C), ultrafiltration
For B11, the Kd [5] was 14.1 µM.
